Like-named read-outs stand apart in the source and are kept apart here.
Legend:
[1] = test system: human umbilical vein endothelial cells (HUVEC); experiment: In vitro HUVEC tube formation assay; assay type: cell-based; settings: for IC50: CD31 staining, day 11
Protocol: Human umbilical vein endothelial cells (HUVECs) were plated on a feeder layer of fibroblasts and cultured in 24-well plates in Lonza EBM-2 medium (a basal medium developed for normal human endothelial cells in a low-serum environment) supplemented with hEGF, Hydrocortisone, GA-1000 (Gentamicin, Amphotericin-B), FBS (Fetal Bovine Serum) 10 ml (2% final), VEGF, hFGF-B, R3-IGF-1, Ascorbic Acid and heparin. […] At this point (day 1), 0.5 ml of fresh endothelial cell growth medium containing no additions (control), anti-LOXL2 antibody AB0023, or suramin was added to the wells. The plate was then cultured at 37° C. and 5% CO2. On days 4, 7 and 9 the medium was removed from all wells and carefully replaced with 0.5 ml of fresh medium containing the additions listed above. On day 11, the plates were fixed and tubules were assayed for CD31 expression as follows. Wells were washed with 1 ml PBS and fixed with 1 ml ice cold 70% ethanol for 30 minutes at room temperature. Cells were then incubated, for 60 minutes at 37° C., with 0.5 ml mouse anti-human CD31 antibody diluted 1:400 in PBS containing 1% BSA. Wells were then washed three times with 1 ml PBS, followed by incubation for 60 minutes at 37° C. with 0.5 ml alkaline phosphatase-conjugated goat anti-mouse IgG secondary antibody diluted 1:500 in PBS containing 1% BSA. Wells were washed a further three times with 1 ml PBS prior to incubation for 10 minutes at 37° C. with 0.5 ml freshly prepared and filtered BCIP/NBT substrate. Wells were then carefully washed three times with 1 ml distilled water and left to air dry overnight.
Digital images of each well were taken using a Nikon Coolpix camera on a Leica inverted microscope at 10× magnification. Four random fields per well were imaged, producing 96 images in total. Images were then converted to BMP files and imported into an image analysis package to measure number of vessel branches, number of vessels and total vessel length. […]

[2] = test system: MCF7 cells; experiment: Induction of EMT-like phenotype by LOXL2-containing conditioned media (rhodamine-phalloidin staining); assay type: cell-based; settings: MDA-MB231 or Hs-578t conditioned media; BAPN up to 2 mM
Protocol: Cells were seeded at 80% confluency, in an 8-chambered slide, 24 hours prior to the day of staining. After 24 hours, media was aspirated and the chambers were washed with PBS. Cells were then fixed with 4% Parafomaldehyde (PFA) for 20 minutes at room temperature and then permeabilized with 0.5% Saponin (JT Baker, Phillipsburg, N.J.) for 5 minutes at room temperature. Cells were then stained for 15 minutes at room temperature with a 1:100 dilution of rhodamine phalloidin (Invitrogen, Carlsbad, Calif.). Slides were mounted with Vectashield (Vector Laboratories, Burlingame, Calif.).
MCF7 or SW620 cells were seeded at 50,000 cells per well of an 8-chambered culture slide in HGDMEM (high-glucose Dulbecco's modified Eagle's medium containing 4.5 g/l glucose)+10% FBS, 2 mM L-glutamine, 24 hours prior to being exposed to conditioned medium (CM). 500 uls of fresh conditioned medium from MDA MB 231 cells was added to the chambers containing MCF7 cells. The cells were incubated with the CM for 48-96 hours. Conditioned medium from MCF7 or SW620 cells was used as a negative control. After 48-96 hours incubation with CM, the cells were stained with rhodamine-phalloidin as described above.

[3] = test system: Matrigel plug containing bFGF; experiment: In vivo Matrigel plug angiogenesis assay; set-up: species or system mouse; settings: 30 mg/kg i.p. twice weekly
Protocol: Athymic female Ncr:Nu/Nu mice were injected subcutaneously in the flank with 0.5 ml high-concentration Matrigel (BD Biosciences, San Jose, Calif.) supplemented with 100 ng/ml FGF and 60 U heparin. Matrigel injections were conducted one week after initiation of treatments with antibodies). Antibodies (or PBST, as a control) were administered by intraperitoneal injection of 30 mg/kg twice weekly. Matrigel plugs were harvested 10 days after implantation by excising the plug together with attached skin, and were fixed in 10% neutral buffered formalin and embedded in paraffin. 5 um sections were cut and stained with hematoxylin and eosin, anti-CD31 or anti-CD34 antibodies to assess degree of vessel formation.

[4] = test system: CCl4-induced liver fibrosis; experiment: CCl4-induced liver fibrosis; assay type: in vivo, mouse; settings: 30 mg/kg i.p. twice a week
Protocol: Male BALB/c mice (10-12 weeks old) were obtained from Aragen Biosciences (Morgan Hill, Calif.). Mice were distributed into 4 groups. Mice in 3 of the groups were injected with CCl4 (Sigma-Aldrich, St. Louis, Mo.), and mice in the remaining group were injected with saline.
CCl4 was intraperitoneally administered to mice at 1 ml/kg body weight (CCl4: mineral oil in 1:1 (v/v) ratio) twice weekly for 4 weeks. In the control group, 0.9% saline (saline:mineral oil in 1:1 (v/v) ratio) was administered intraperitoneally using the same dosing regimen.
In the CCl4-treated groups, the first group was treated with AB0023 (diluted in PBS/0.01% Tween-20), the second group was treated with pep4 M64 (diluted in […]) and the third group was treated with vehicle (PBST). Antibodies and vehicle were injected intraperioneally at a dose of 30 mg/kg twice a week. The treatment started a day prior to the first administration of CCl4 and continued until the end of the study. The study was terminated after 4 weeks of CCl4 and antibody administration. Mice were euthanized and sacrificed humanely and the livers were harvested 96 hours after completion of dosing. The livers were snap-frozen for histological and immunohistochemical analyses.
Ten fields (or areas or lobes) for each treatment regimen were randomly selected and stained with Sirius Red. The area used for scoring was 1.7 mm×1.3 mm and contained at least 8 portal triads.
Triads and areas of complete bridging fibrosis were counted. […] The percentages from 10 fields (per treatment) were averaged and standard error was calculated.
For each treatment, five fields were selected and stained with an anti-alpha-smooth muscle actin (aSMA) antibody. aSMA-positive signal in the porto-portal region (threshold area %) was analyzed by Metamorph (Molecular Devices, Downingtown, Pa.). aSMA-positive signal in sections from animals undergoing AB0023-treatment was compared to signal obtained in sections from animals that had been treated with vehicle (PBS).

[5] = Repeat-dose tolerability in mice; settings: 50 mg/kg twice per week for 14 weeks
[6] = test system: MDA-MB-435 established primary tumors; experiment: MDA-MB-435 established primary tumor xenograft model; assay type: in vivo, mouse; settings: independent study; AB0023 5 mg/kg twice per week, BAPN 100 mg/kg daily

B1: AB0023: mouse anti-human LOXL2 monoclonal antibody; heavy chain variable region SEQ ID NO:1, light chain variable region SEQ ID NO:2 (antibody, listed as Mus musculus, V domains shown)
VH: MEWSRVFIFLLSVTAGVHSQVQLQQSGAELVRPGTSVKVSCKASGYAFTYYLIEWVKQRPGQGLEWIGVINPGSGGTNYNEKFKGKATLTADKSSSTAYMQLSSLTSDDSAVYFCARNWMNFDYWGQGTTLTVSS
VL: MRCLAEFLGLLVLWIPGAIGDIVMTQAAPSVSVTPGESVSISCRSSKSLLHSNGNTYLYWFLQRPGQSPQFLIYRMSNLASGVPDRFSGSGSGTAFTLRISRVEAEDVGVYYCMQHLEYPYTFGGGTKLEIK
modifications: Heavy chain; Light chain
- inhibition of vessel branching, vessel length and total number of vessels ([1]; 50 ug/ml): complete inhibition
- IC50 ([1]; read-out: IC50 for inhibition of number of vessels (FIG. 4 Panel H)): 19.9 nM
- IC50 ([1]; read-out: IC50 for inhibition of vessel branching (mean number of branching points, FIG. 4 Panel G)): 22.2 nM
- remodeling of the actin cytoskeleton induced by LOXL2-containing conditioned media [2]: abrogated
- CD31 positive cells in the matrigel plugs ([3]; p=0.0168): significant decrease
- reduction in average number of vessels in plugs versus vehicle ([3]; plugs at day 10, p=0.0319): ~7 fold
- aSMA positive myofibroblasts in porto-portal septa [4]: substantial reduction
- mortality resulting from injection with CCl4 (survival) ([4]; AB0023 p=0.0029 log rank): prevented
- bridging fibrosis in livers ([4]; Sirius Red, AB0023 p=0.002, M64 p=0.127): significantly inhibited
- tolerability [5]: well-tolerated
- reduction in collagen production, Sirius red staining [6]: 47%
- reduction in fibroblast activation, αSMA positivity [6]: > 90%
- reduction in tumor vasculature, CD31 signal [6]: 52%
- reduction in tumor volume after 46 days [6]: 38.4%

Reference: patent US20110076272A1, “THERAPEUTIC METHODS AND COMPOSITIONS” (priority 2009, published 2011)
